The target in experiment [1] is T1, prefusion clamp2 stabilized NiV F (Nipah virus, strain  (Q9IH63 …, UniProt Q9IH63, stabilised)).
T1 construct: also called Nipah virus F
The experiment can be described thus: ELISA. The settings on record: both partners purified.

Experiment [2] deals with LayV F clamp2 (prefusion Langya virus fusion glycoprotein ectodomain stabilised with the clamp2 molecular … (Langya virus (GenBank UUV47205.1), stabilised, N-linked glycans at N65 and N459)). The experiment can be described thus: ELISA. The conditions noted are these: both partners purified.

B1: 1F5 (human IgG1) (antibody, V domains shown)
VH: DVQLQESGPGLVKPSQSLSLTCSVTGYSITSDYYWNWIRQFPGNKLEWMGYVTYDGSNNYNPSLKNRISITRDSSKNQFFLKLNSVISEDTATYYCARFGSSYWAMDYWGQGTSLTVSS
VL: QIVLTQSPAIMSASLGEAITLTCSASSSVSYMHWYQQKSGTSPKLLIYSTSNLASGVPSRFSGSGSGTFYSLTISSVEAEDAADYYCHQWYSYPWTFGGGTKLEIK
On to B1, for which the binding result in experiment [1] is on record as “binds”; in experiment [2], “no binding (tested: 50 μg/mL)”.

B2: 12B2 (human IgG1) (antibody, V domains shown)
VH: QVQLKESGPGLVAPSQSLSITCTVSGFSLASYGVHWVRQPPGKGLEWLGVIWTGGSTNYNSALMSRLSINRDNSKSQVFLKLNSLQTDDTAIYYCARDRGYGYGGFAYWGQGTLVTVSA
VL: DIQMTQSPASLSASVGETVTITCRASENIYSYLAWYQHKQGKSPQLLVYNAKSLAEGVPSRFSGSGSGTQFSLKINSLQPEDFGSYYCQHHYGTPWTFGGGTKLEIK
On to B2, for which the figures for the binding result in experiment [1] and in experiment [2] were “binds” and “no binding (tested: 50 μg/mL)”, respectively.

B3: 5B3 (human IgG1) (antibody, V domains shown)
VH: EVQLVESGGGLVKPGGSLKLSCAASGFTFSSYDMSWVRQTPEKRLEWVAMISSGGSYSYYPDSVKGRFTISRDNAKNTLYLQMSSLRSEDTAMYYCARQGDYAWFAYWGQGTLVTVSS
VL: DIQMTQSPASQSASLGESVTITCLASQTIGTWLAWYQQKPGKSPQLLIYAATSLADGVPSRFSGSGSGTKFSFKISSLQAEDFVSYYCQQFYSTPFTFGGGTKLEIK
For B3, the binding result in experiment [1] was “binds”; in experiment [2] it was “no binding (tested: 50 μg/mL)”.

B4: mAb66 (human IgG1) (antibody, V domains shown)
VH: ETGSGGGLVKPGGTLTLTCKASGFTLSSYWMCWVRQAPGKGLELIACLYTNGATTWYASWVNGRFAISRSTSRNTVDLNMTSLTAADTATYFCARGSGSGWSWFNIWGPGTLVTVSS
VL: TGVMTQTPASVEAAVGGTVTIKCQASQNIISSLAWYQQKPGQRPKLLIYYASTLASGVPSRFKGSGSGTQFTLTISDLECADAATYYCQSYYYSGITYGNAFGGGTEVVVK
Turning to B4, the binding result in experiment [1] is “binds”; in experiment [2], “no binding (tested: 50 μg/mL)”.

These data come from PMC10275869 (Nature Communications, 2023).
